Test results taken from the supplement of paper PMC10724198.
± gives the standard deviation of the averaged measurements.

These sequences were tested on Saccharomyces cerevisiae (assay: protein stability index of tFT-peptide fusion (C-terminal peptide) (PSI (0-1 scale)); higher = more stable (slower turnover)). Details: genetic background: das1 deletion; temperature: 30 C.
Protocol: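 MPS profiling in S. cerevisiae of the yeast C-terminome library: the last 12 aa of each annotated ORF are fused to the C-terminus of a sfGFP-mCherry timer, after a GGGS linker. Cells are FACS-sorted into 8 mCherry/sfGFP bins and deep-sequenced. PSI runs from 0 (unstable) to 1 (stable); wild type and das1Δ backgrounds, two technical replicates each.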

| Sequence | protein stability index |
| --- | --- |
| HLYSTLLFHSVN [RRG8 C-terminal 12 aa] | 0.728 ± 0.013 |
| HNDNSGTVLGTA [RBD2 C-terminal 12 aa] | 0.7 ± 0.017 |
| HNGKNKNRNSKK [MPP6 C-terminal 12 aa] | 0.691 ± 0.03 |
| HPFLLWQGQVFF [YCR022C C-terminal 12 aa] | 0.729 ± 0.012 |
| HQDSAKYTHYYL [YER158C C-terminal 12 aa] | 0.696 ± 0.016 |
| HTMENIFAGKLD [CUE4 C-terminal 12 aa] | 0.7177 ± 0.0019 |
| IAKRFAKALGRS [ARN2 C-terminal 12 aa] | 0.711 ± 0.0084 |
| IAQNVSRSSQQV [YMD8 C-terminal 12 aa] | 0.6875 ± 0.00089 |
| ICKALVKQDLGL [LAP2 C-terminal 12 aa] | 0.6972 ± 0.002 |
| IDIPISVRQVTK [BUL1 C-terminal 12 aa] | 0.707 ± 0.0073 |
| IDKFLDHIGKSQ [FBP1 C-terminal 12 aa] | 0.698 ± 0.025 |
| IDSIDDLVDSDT [NPP1 C-terminal 12 aa] | 0.6907 ± 0.0066 |
| IEALYKLVEEKM [NQM1 C-terminal 12 aa] | 0.701 ± 0.017 |
| IEKSKSDRRKLL [YHR022C C-terminal 12 aa] | 0.728 ± 0.063 |
| IELQLTEIPKHK [FIN1 C-terminal 12 aa] | 0.701 ± 0.022 |
| IGELLEGIRMSI [BIT2 C-terminal 12 aa] | 0.694 ± 0.012 |
| IGPLAFLVFKTA [DYN2 C-terminal 12 aa] | 0.67 ± 0.02 |
| IHENEESNENEG [RQC1 C-terminal 12 aa] | 0.702 ± 0.0099 |
| IHYLLHIERERK [YOR385W C-terminal 12 aa] | 0.683 ± 0.037 |
| IIRSEKKKKEEQ [YBR292C C-terminal 12 aa] | 0.748 ± 0.041 |
| IKETIQRLTDDR [GMC2 C-terminal 12 aa] | 0.661 ± 0.018 |

| Sequence | protein stability index |
| --- | --- |
| IKIRIYSPRSIS [YDL240C-A C-terminal 12 aa] | 0.715 ± 0.017 |
| IKKYNITSPFLD [NSE4 C-terminal 12 aa] | 0.696 ± 0.022 |
| IKRRSNVGVVML [NMT1 C-terminal 12 aa] | 0.6647 ± 0.003 |
| IKSVHVDLSLDK [ALD3 C-terminal 12 aa] | 0.717 ± 0.022 |
| ILHERNIPLEKI [TPT1 C-terminal 12 aa] | 0.709 ± 0.021 |
| ILIRKKLKAENI [OPY1 C-terminal 12 aa] | 0.677 ± 0.021 |
| ILLHLEYAAAYS [STN1 C-terminal 12 aa] | 0.521 ± 0.033 |
| INILPVRKKKKV [SAS4 C-terminal 12 aa] | 0.705 ± 0.024 |
| INKASVKFFFFA [YJL119C C-terminal 12 aa] | 0.637 ± 0.0095 |
| INNTDITLYNDV [YPL068C C-terminal 12 aa] | 0.707 ± 0.019 |
| IQELVNTIRELQ [YPL077C C-terminal 12 aa] | 0.69 ± 0.018 |
| IQISDVSMSPSL [PEX31 C-terminal 12 aa] | 0.6811 ± 0.00011 |
| IQKDSMVHPGKK [VAC7 C-terminal 12 aa] | 0.6694 ± 0.0052 |
| IQQTNSFLREII [YDL211C C-terminal 12 aa] | 0.692 ± 0.0098 |
| IRLLTYLLRKIE [YLR230W C-terminal 12 aa] | 0.654 ± 0.033 |
| ISFDLCGKQNFQ [MTC7 C-terminal 12 aa] | 0.705 ± 0.056 |
| ISIALEGHTLFL [PDE1 C-terminal 12 aa] | 0.715 ± 0.02 |
| ISIEELAQYLKK [RIB3 C-terminal 12 aa] | 0.70628 ± 0.00065 |
| ISKLKGISKPSP [MDS3 C-terminal 12 aa] | 0.682 ± 0.014 |
| ISNLPECLGNLC [ANR2 C-terminal 12 aa] | 0.6968 ± 0.0047 |
| ITKSSNKFVNNV [YNL043C C-terminal 12 aa] | 0.665 ± 0.022 |

| Sequence | protein stability index |
| --- | --- |
| ITLESGSYKFQD [SRP40 C-terminal 12 aa] | 0.695 ± 0.025 |
| ITSKRKAELLLK [DIS3 C-terminal 12 aa] | 0.723 ± 0.062 |
| IVRPLELKYFGR [FCY22 C-terminal 12 aa] | 0.7236 ± 0.0033 |
| IWVVDSLGSLVG [YPL142C C-terminal 12 aa] | 0.6847 ± 0.00084 |
| IYIQTPINDFKS [SLM1 C-terminal 12 aa] | 0.705 ± 0.031 |
| IYKEKYMKQGPK [DSF2 C-terminal 12 aa] | 0.701 ± 0.071 |
| IYYMEQMLGKTQ [HSK3 C-terminal 12 aa] | 0.696 ± 0.038 |
| KALNEIFMITND [PXR1 C-terminal 12 aa] | 0.723 ± 0.013 |
| KAPKSPEVIEID [UFD1 C-terminal 12 aa] | 0.6978 ± 0.0035 |
| KARPFKCSDKKQ [MZM1 C-terminal 12 aa] | 0.718 ± 0.016 |
| KDEPVKAHNKLK [SAS5 C-terminal 12 aa] | 0.693 ± 0.011 |
| KDETPEDNLEDK [VBA3 C-terminal 12 aa] | 0.6896 ± 0.00088 |
| KDNNISSYGSII [YPL162C C-terminal 12 aa] | 0.693 ± 0.037 |
| KEANPIKITPQP [MDL2 C-terminal 12 aa] | 0.682 ± 0.009 |
| KELEPVPPVSKS [OMS1 C-terminal 12 aa] | 0.7006 ± 0.007 |
| KEMWITGKIVED [IML1 C-terminal 12 aa] | 0.672 ± 0.021 |
| KGCYKLCKNLLE [KEI1 C-terminal 12 aa] | 0.686 ± 0.013 |
| KGDGKFWSSKKD [OM45 C-terminal 12 aa] | 0.709 ± 0.0022 |
| KGFQFGLGLAFL [SAM50 C-terminal 12 aa] | 0.736 ± 0.034 |
